Data: patent publication US20090286854A1, “APTAMERS DIRECTED TO MUCI” (The Open University, published 2009)

How the values were obtained:
[1] = target: 5TR MUC1 recombinant protein (human); experiment: affinity chromatography, elution from the MUC1 chromatography matrix
[2] = target: T1, MUC1 5TR (five tandem repeat recombinant MUC1, unglycosylated) (Homo sapiens, UniProt P15941 P15941:161-260); experiment: SPR; 100 mM NaCl, 5 mM MgCl2, pH 7.4; printed ka 0.207e7, kd 0.00098 would give 0.47 nM; details: tags: 6xHis; expressed in E. coli BL21; biotin-XX labelled for SPR; about 11.8 kDa
T1 sequence (P15941 141-240, one chain of several): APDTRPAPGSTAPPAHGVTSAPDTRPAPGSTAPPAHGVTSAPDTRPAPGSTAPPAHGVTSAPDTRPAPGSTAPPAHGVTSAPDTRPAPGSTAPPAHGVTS
Description: (§1) Biotinylated 5TR-MUC1 protein was immobilised on a BIAcore SA sensor chip (gold-streptavidin) and the system was optimised to reduce mass transport, steric hindrance, crowding, avidity and aggregation. A range of peptide concentrations, ranging from 1 μM to 1 nM were tested under different injection times and the optimum conditions used were 100 μL of 1 nM peptide in running buffer perfused over each individual channel at the rate of 25 μL/min for […]. Chip regeneration to peptide level was followed by the subsequent application of a 30 sec pulse with a solution of 10 mM NaOH. The aptamers were prepared in their selection buffers (phosphate buffer containing 100 mM NaCl, 5 mM MgCl₂, pH 7.4) at 1 μM and were applied with 30 sec injections with a 5 sec wash step with selection buffer to allow for non-specific analyte removal. The chip surfaces were regenerated (elution step) by the application of a 10 μL pulse of 1.5 M NaCl, 5 mM MgCl₂, pH 7.4.
(§2) The experimental BIAcore data were fitted to two mathematical equations for the determination of association (kₐ) and dissociation constants (kd) using non-linear regression analysis. […]
(§3) The concentration of free aptamer was assumed to be constant since an excess amount was applied to the system when compared to the amount of MUC1. […] The Kd was calculated from the following relationship: Kd is equal to kd/kₐ. […]

[3] = target: T1, MUC1 5TR (five tandem repeat …); experiment: SPR; 100 mM NaCl, 5 mM MgCl2, pH 7.4; printed ka and kd would give 0.85 nM; p17 and claim list print SEQ 2 with 3' G instead of C; details: tags: 6xHis; expressed in E. coli BL21; biotin-XX labelled for SPR; about 11.8 kDa
Description: as §1, §2, §3

[4] = target: MUC1 5TR glycosylated with GalNAc (Tn antigen) (Homo sapiens, UniProt P15941 P15941:161-260); experiment: pulldown; Ni-NTA magnetic beads, 100 mM NaCl, 5 mM MgCl2, pH 7.4, 37 C; values in figure only; details: tags: 6xHis; expressed in E. coli BL21; glycosylated in vitro with ppGalNAc-T1
MUC1 5TR glycosylated with GalNAc (Tn antigen), sequence (P15941 141-240, one chain of several): as above
Description: The Qiagen kit containing agarose magnetic beads in the proportion of 5% solution coated with nickel for His-tag purification was used for the assay. Seven tubes each containing 900 μl of start buffer (100 mM NaCl₂, 5 mM MgCl₂, pH 7.4) used to resuspend a 10 μM solution of glycosylated MUC1 5TR peptide were prepared according to manufacturer's instructions:
10 μl of the 5% beads solution was added to the solution and incubated at 4° C. for half an hour with shaking, After 30 minutes, supernatant was removed. The beads were washed by adding start buffer, allowing 1-5 min of washing time. 1 mM (500 μl) of each Glycosylated MUC1 aptamer solution in start buffer were added to the previously prepared magnetic beads containing his-tagged glycosylated MUC1. The solution containing complexed beads and aptamer solution were allowed to incubate at 37° C. for 1 hour with shaking.
After one hour the supernatant was removed and its absorbance was measured using a UV spectrometer (Eppendorf, USA) at 260 nm. The remaining Magnetic beads were washed three times with 500 μl of wash buffer (150 mM NaCl₂, 5 mM MgCl₂, pH 7.4). The supernatant was removed and 50 μl of elution buffer (1.5M NaCl₂, 5mM MgCl₂, pH 7.4) were added. The elution buffer was allowed to incubate with magnetic beads for 5 min with shaking. The magnetic beads were spun for 30 seconds at 4000 rpm to a pellet. The magnetic beads were attracted by a magnetic bar and supernatant was removed. The eluted supernatant was removed and measured using a UV spectrometer (Eppendorf, USA) 260 absorbance.

[5] = target: T1, MUC1 5TR (five tandem repeat …); experiment: SPR; 100 mM NaCl, 5 mM MgCl2, pH 7.4; printed ka and kd would give 0.83 nM; details: tags: 6xHis; expressed in E. coli BL21; biotin-XX labelled for SPR; about 11.8 kDa
Description: as §1, §2, §3

[6] = target: T1, MUC1 5TR (five tandem repeat …); experiment: SPR; 100 mM NaCl, 5 mM MgCl2, pH 7.4; printed ka and kd would give 0.69 nM; details: tags: 6xHis; expressed in E. coli BL21; biotin-XX labelled for SPR; about 11.8 kDa
Description: as §1, §2, §3

5TR MUC1 recombinant protein (human), sequence (main, as listed by the source): as the sequence (P15941 141-240, one chain of several) above

Q: With C595 anti-MUC1 monoclonal antibody as the molecule, how does the NaSCN concentration at elution from the affinity matrix [1] read?
A: 0.8 M

B1: MUC1 5TR-1 (ssDNA)
DNA: GAAGTGAAAATGACAGAACACAACA
Q: For B1, which Kd [2] is on record?
A: 47.3 nM

B2: MUC1 5TR-2 (ssDNA)
DNA: GGCTATAGCACATGGGTAAAACGAC
Q: How did the Kd [3] turn out when B2 was run?
A: 85.2 nM

B3: 5TR-T7 (ssDNA)
DNA: CGGTCTACGGAGCCGCGTTAAACTT
Q: Does B3 bind [4]?
A: binds

B4: MUC1 5TR-3 (ssDNA)
DNA: CAAACAATCAAACAGCAGTGGGGTG
Q: With B4 as the molecule, how does the Kd [5] read?
A: 83 nM

B5: MUC1 5TR-4 (ssDNA)
DNA: TACTGCATGCACACCACTTCAACTA
Q: B5 was tested. Which Kd [6] did it give?
A: 69 nM

B6: 5TR-T1 (ssDNA)
DNA: GGGTTATATTACTCGGCCGGTGTAA
Q: Does B6 bind [4]?
A: binds

B7: 5TR-T3 (ssDNA)
DNA: GGCGTACGGTAGGCGGGGTCAACTG
Q: Does B7 bind [4]?
A: binds

B8: 5TR-T4 (ssDNA)
DNA: GCTGGGTAAATAGATGATTCCCGGC
Q: Does B8 bind [4]?
A: binds

B9: 5TR-T5 (ssDNA)
DNA: AGTGGTGGTTTTATAAGACTGATAC
Q: Does B9 bind [4]?
A: binds

B10: 5TR-T6 (ssDNA)
DNA: TAGCCTTAATGCCTTTGTAAGGCGA
Q: Does B10 bind [4]?
A: binds
